# Experimental data published in patent US20260209350A1 (Alector, published 2026).
# Key:
# [1] = target: T1, human TREM2 Fc fusion protein (human, UniProt Q9NZC2 19-174); assay: ForteBio or MSD-SET, avid
# T1 construct: also called hTREM2-Fc; not shown: Fc part not specified
# T1 sequence: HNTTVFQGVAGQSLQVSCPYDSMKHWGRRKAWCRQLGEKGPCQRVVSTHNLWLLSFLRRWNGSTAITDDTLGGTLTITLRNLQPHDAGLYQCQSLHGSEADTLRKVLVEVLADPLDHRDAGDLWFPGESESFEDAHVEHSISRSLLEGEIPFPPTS
# [2] = target: T2, mouse TREM2 on cells (mouse, UniProt Q99NH8 19-227); assay: FACS, mTrem2 cells
# T2 construct: whole, on cells; Used for the recombinant protein on BWZ/BW cells (with mouse DAP12) and for the native protein on mouse macrophages and dendritic cells; the cell type stands under assay; also called mTREM2; mTrem2
# T2 sequence (looked up): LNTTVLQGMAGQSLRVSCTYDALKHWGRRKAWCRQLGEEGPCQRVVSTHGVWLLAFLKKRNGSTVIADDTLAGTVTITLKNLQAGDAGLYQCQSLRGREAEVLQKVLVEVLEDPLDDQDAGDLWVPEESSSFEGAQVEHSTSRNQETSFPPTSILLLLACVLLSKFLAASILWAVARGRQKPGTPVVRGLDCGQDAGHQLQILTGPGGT
# [3] = target: T3, human monomeric His tagged TREM2 protein (human, UniProt Q9NZC2 19-174); assay: ForteBio or MSD-SET, monovalent
# T3 construct: also called hTREM2-HIS
# T3 sequence: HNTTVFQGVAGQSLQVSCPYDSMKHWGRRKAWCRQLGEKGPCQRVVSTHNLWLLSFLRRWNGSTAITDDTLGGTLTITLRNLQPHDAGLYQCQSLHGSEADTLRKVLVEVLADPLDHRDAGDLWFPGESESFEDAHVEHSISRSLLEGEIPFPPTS
# [4] = target: T4, mouse TREM2 Fc fusion protein (mouse, UniProt Q99NH8 19-171); assay: ForteBio or MSD-SET, avid
# T4 construct: also called mTREM2-Fc; not shown: Fc part not specified
# T4 sequence (looked up): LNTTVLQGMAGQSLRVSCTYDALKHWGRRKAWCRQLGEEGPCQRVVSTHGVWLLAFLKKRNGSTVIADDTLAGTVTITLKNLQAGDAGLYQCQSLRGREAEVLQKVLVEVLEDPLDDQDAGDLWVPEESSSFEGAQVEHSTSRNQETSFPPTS
binder,measurement,setting,value
"Ab64 (antibody, human IgG1, V domains shown, human IgG1) VH: EVQLVQSGAEVKKPGESLKISCKGSGYSFTSYWIGWVRQMPGKGLEWMGIIYPGDSDTRYSPSFQGQVTISADKSISTAYLQWSSLKASDTAMYYCARLGRWSSGSTAFDIWGQGTMVTVSS VL: EIVMTQSPATLSVSPGERATLSCRASQSVSSNLAWYQQKPGQAPRLLIYGASTRATGIPARFSGSGSGTEFTLTISSLQSEDFAVYYCQQDDDGYTFGGGTKVEIK",Kd,[1],0.945 nM
same,MFI,[2],8680 MFI
same,Kd,[3],65.7 nM
"Ab10 (antibody, human IgG1, V domains shown, human IgG1) VH: EVQLVQSGAEVKKPGESLKISCKGSGYSFTSNWIGWVRQMPGKGLEWMGIIYPGDSDTRYSPSFQGQVTISADKSISTAYLQWSSLKASDTAMYYCAREAGYDYGELAFDIWGQGTMVTVSS VL: not shown",Kd,[1],0.544 nM
same,MFI,[2],11500 MFI
same,Kd,[3],4.79 nM
"Ab31 (antibody, human IgG1, V domains shown, human IgG1) VH: QVQLVESGGGVVQPGRSLRLSCAASGFTFSSYGMHWVRQAPGKGLEWVALIWYDGSNKYYADSVKGRFTISRDNSKNTLYLQMNSLRAEDTAVYYCARRRDGYYDEVFDIWGQGTMVTVSS VL: DIQLTQSPSSLSASVGDRVTITCQASQDISNFLNWYQQKPGKAPKLLIYDASNLETGVPSRFSGSGSGTDFTFTISSLQPEDIATYYCQQPVDLPFTFGGGTKVEIK",Kd,[1],0.451 nM
same,binding result,[4],no binding
same,Kd,[3],6.82 nM
"Ab72 (antibody, human IgG1, V domains shown, human IgG1) VH: QVQLQESGPGLVKPSETLSLTCTVSGGSISSYYWSWIRQPPGKGLEWIGSIYYSGSTNYNPSLKSRVTISVDTSKNQFSLKLSSVTAADTAVYYCARSGTETLFDYWGQGTLVTVSS VL: DIQMTQSPSSLSASVGDRVTITCQASQDITNYLNWYQQKPGKAPKLLIYDASNLETGVPSRFSGSRSGTDFTFTISSLQPEDIATYYCQQDVNYPPTFGGGTKVEIK",Kd,[1],0.839 nM
same,MFI,[2],3750 MFI
same,Kd,[3],29.4 nM
"Ab3 (antibody, human IgG1, V domains shown, human IgG1) VH: QVQLVQSGAEVKKPGSSVKVSCKASGGTFSSYAISWVRQAPGQGLEWMGGIIPIFGTANYAQKFQGRVTITADESTSTAYMELSSLRSEDTAVYYCAREQYHVGMDVWGKGTTVTVSS VL: DIQMTQSPSSLSASVGDRVTITCQASQDISNYLNWYQQKPGKAPKLLIYDASNLATGVPSRFSGSGSGTDFTFTISSLQPEDIATYYCQQPFNFPYTFGGGTKVEIK",Kd,[1],0.49 nM
same,binding result,[4],no binding
same,Kd,[3],14.2 nM
"Ab51 (antibody, human IgG1, V domains shown, human IgG1) VH: QVQLVQSGAEVKKPGASVKVSCKASGYTFTSYYMHWVRQAPGQGLEWMGIINPSGGSTSYAQKFQGRVTMTRDTSTSTVYMELSSLRSEDTAVYYCARGVGGQDYYYMDVWGKGTTVTVSS VL: DIQMTQSPSSLSASVGDRVTITCRASQSISSYLNWYQQKPGKAPKLLIYAASSLQSGVPSRFSGSGSGTDFTLTISSLQPEDFATYYCQQFDDVFTFGGGTKVEIK",Kd,[1],0.284 nM
same,Kd,[3],1.64 nM
"Ab18 (antibody, human IgG1, V domains shown, human IgG1) VH: QVQLQESGPGLVKPSETLSLTCTVSGGSISSYYWSWIRQPPGKGLEWIGSIYYSGSTNYNPSLKSRVTISVDTSKNQFSLKLSSVTAADTAVYYCARDGGGEYPSGTPFDIWGQGTMVTVSS VL: not shown",Kd,[1],0.513 nM
same,MFI,[2],5160 MFI
same,Kd,[3],6.77 nM
"Ab19 (antibody, human IgG1, V domains shown, human IgG1) VH: QVQLQESGPGLVKPSETLSLTCTVSGGSISSYYWSWIRQPPGKGLEWIGSIYYSGSTNYNPSLKSRVTISVDTSKNQFSLKLSSVTAADTAVYYCARDGGGEYPSGTPFDIWGQGTMVTVSS VL: not shown",Kd,[1],0.465 nM
same,MFI,[2],2300 MFI
same,Kd,[3],4.49 nM
"Ab12 (antibody, human IgG1, V domains shown, human IgG1) VH: EVQLVQSGAEVKKPGESLKISCKGSGYSFTSYWIGWVRQMPGKGLEWMGIIYPGDSDTRYSPSFQGQVTISADKSISTAYLQWSSLKASDTAMYYCARLGHYSGTVSSYGMDVWGQGTTVTVSS VL: DIQMTQSPSSLSASVGDRVTITCRASQSISSYLNWYQQKPGKAPKLLIYAASSLQSGVPSRFSGSGSGTDFTLTISSLQPEDFATYYCQQEYAVPYTFGGGTKVEIK",Kd,[1],1.19 nM
same,Kd,[4],7.91 nM
same,MFI,[2],1550 MFI
same,Kd,[3],2.68 nM
"Ab54 (antibody, human IgG1, V domains shown, human IgG1) VH: QVQLVQSGAEVKKPGASVKVSCKASGYTFTSYYMHWVRQAPGQGLEWMGIINPSGGSTSYAQKFQGRVTMTRDTSTSTVYMELSSLRSEDTAVYYCARGPGYTTALDYYYMDVWGKGTTVTVSS VL: DIQMTQSPSSLSASVGDRVTITCRASQSINSYLNWYQQKPGKAPKLLIYAASSLQSGVPSRFSGSGSGTDFTLTISSLQPEDFATYYCQQSDDDPFTFGGGTKVEIK",Kd,[1],0.5 nM
same,Kd,[3],3.02 nM
"Ab34 (antibody, human IgG1, V domains shown, human IgG1) VH: QVQLVESGGGVVQPGRSLRLSCAASGFTFSSYGMHWVRQAPGKGLEWVAVISYDGSNKYYADSVKGRFTISRDNSKNTLYLQMNSLRAEDTAVYYCARDRGGEYVDFAFDIWGQGTMVTVSS VL: DIQMTQSPSSLSASVGDRVTITCRASQSISSYLNWYQQKPGKAPKLLIYAASSLQSGVPSRFSGSGSGTDFTLTISSLQPEDFATYYCQQSDFPPWTFGGGTKVEIK",Kd,[1],0.706 nM
same,binding result,[4],no binding
same,Kd,[3],27 nM
"Ab11 (antibody, human IgG1, V domains shown, human IgG1) VH: EVQLVQSGAEVKKPGESLKISCKGSGYSFTTYWIGWVRQMPGKGLEWMGIIYPGDSDTRYSPSFQGQVTISADKSISTAYLQWSSLKASDTAMYYCARAGHYDGGHLGMDVWGQGTTVTVSS VL: EIVLTQSPGTLSLSPGERATLSCRASQSVSSDYLAWYQQKPGQAPRLLIYGASSRATGIPDRFSGSGSGTDFTLTISRLEPEDFAVYYCQQDYSYPWTFGGGTKVEIK",Kd,[1],0.934 nM
same,Kd,[4],1.19 nM
same,MFI,[2],5500 MFI
same,Kd,[3],7.2 nM
"Ab20 (antibody, human IgG1, V domains shown, human IgG1) VH: QVQLQESGPGLVKPSETLSLTCTVSGGSISSYYWSWIRQPPGKGLEWIGSIYYSGSTNYNPSLKSRVTISVDTSKNQFSLKLSSVTAADTAVYYCARSGMASFFDYWGQGTLVTVSS VL: EIVLTQSPGTLSLSPGERATLSCRASQSVSSDYLAWYQQKPGQAPRLLIYGASSRATGIPDRFSGSGSGTDFTLTISRLEPEDFAVYYCQQFSSHPFTFGGGTKVEIK",Kd,[1],0.658 nM
same,MFI,[2],11200 MFI
same,Kd,[3],3.62 nM
"Ab4 (antibody, human IgG1, V domains shown, human IgG1) VH: QVQLVQSGAEVKKPGSSVKVSCKASGGTFSSYAISWVRQAPGQGLEWMGGIIPIFGTASYAQKFQGRVTITADESTSTAYMELSSLRSEDTAVYYCARGVDSIMDYWGQGTLVTVSS VL: EIVMTQSPATLSVSPGERATLSCRASQSVSSNLAWYQQKPGQAPRLLIYSASTRATGIPARFSGSGSGTEFTLTISSLQSEDFAVYYCQQDHDYPFTFGGGTKVEIK",Kd,[1],0.971 nM
same,binding result,[4],no binding
same,MFI,[2],295 MFI
"Ab26 (antibody, human IgG1, V domains shown, human IgG1) VH: not shown VL: EIVLTQSPATLSLSPGERATLSCRASQSVSSYLAWYQQKPGQAPRLLIYDASNRATGIPARFSGSGSGTDFTLTISSLEPEDFAVYYCQQEFDLPFTFGGGTKVEIK",Kd,[1],0.481 nM
same,Kd,[3],3.6 nM
"Ab62 (antibody, human IgG1, V domains shown, human IgG1) VH: EVQLVQSGAEVKKPGESLKISCKGSGYSFTSYWIGWVRQMPGKGLEWMGIIYPGDSDTRYSPSFQGQVTISADKSISTAYLQWSSLKASDTAMYYCARAGHYDDWSGLGLDVWGQGTMVTVSS VL: EIVLTQSPATLSLSPGERATLSCRASQSVSSYLAWYQQKPGQAPRLLIYDASKRATGIPARFSGSGSGTDFTLTISSLEPEDFAVYYCQQSSVHPYTFGGGTKVEIK",Kd,[1],0.772 nM
same,MFI,[2],4750 MFI
same,Kd,[3],14.2 nM
"Ab33 (antibody, human IgG1, V domains shown, human IgG1) VH: QVQLVESGGGVVQPGRSLRLSCAASGFTFSSYGMHWVRQAPGKGLEWVAVISYDGSNKYYADSVKGRFTISRDNSKNTLYLQMNSLRAEDTAVYYCARAGGHLFDYWGQGTLVTVSS VL: EIVLTQSPATLSLSPGERATLSCRASQSVSSYLAWYQQKPGQAPRLLIYDASNRATGIPARFSGSGSGTDFTLTISSLEPEDFAVYYCQQDSSFPPTFGGGTKVEIK",Kd,[1],1.42 nM
same,binding result,[4],no binding
same,Kd,[3],16 nM
"Ab6 (antibody, human IgG1, V domains shown, human IgG1) VH: QVQLVQSGAEVKKPGASVKVSCKASGYTFTSYYMHWVRQAPGQGLEWMGIINPGGGSTSYAQKFQGRVTMTRDTSTSTVYMELSSLRSEDTAVYYCARGSPTYGYLYDPWGQGTLVTVSS VL: EIVLTQSPATLSLSPGERATLSCRASQSVSSYLAWYQQKPGQAPRLLIYDASKRATGIPARFSGSGSGTDFTLTISSLEPEDFAVYYCQQRVNLPPTFGGGTKVEIK",Kd,[1],4.44 nM
same,Kd,[4],8.51 nM
same,MFI,[2],228 MFI
"Ab87 (antibody, human IgG1, V domains shown, human IgG1) VH: QVQLQESGPGLVKPSETLSLTCTVSGGSISSYYWSWIRQPPGKGLEWIGSIYYSGSTNYNPSLKSRVTISVDTSKNQFSLKLSSVTAADTAVYYCARHGWDRVGWFDPWGQGTLVTVSS VL: EIVLTQSPATLSLSPGERATLSCRASQSVSRYLAWYQQKPGQAPRLLIYDASNRATGIPARFSGSGSGTDFTLTISSLEPEDFAVYYCQQYIFWPPTFGGGTKVEIK",Kd,[1],9.51 nM
same,Kd,[4],4.48 nM
same,MFI,[2],1230 MFI
